Experimental findings from patent US20080200654A1 (KIRIN PHARMA, published 2008) are described below.

Assay [1] addresses T1, A33 antigen (full-length human A33) (human, UniProt Q99795 22-319).
T1 construct: Class I cell membrane protein of the Ig superfamily; also called GPA33; human A33 antigen
T1 sequence: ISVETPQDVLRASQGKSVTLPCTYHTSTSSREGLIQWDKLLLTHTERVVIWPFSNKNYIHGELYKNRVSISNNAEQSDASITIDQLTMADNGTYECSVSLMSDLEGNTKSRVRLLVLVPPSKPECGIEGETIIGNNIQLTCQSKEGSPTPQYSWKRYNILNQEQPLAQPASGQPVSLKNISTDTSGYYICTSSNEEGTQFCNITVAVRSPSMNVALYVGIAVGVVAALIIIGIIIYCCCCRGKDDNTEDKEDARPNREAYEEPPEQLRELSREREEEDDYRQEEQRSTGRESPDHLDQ
Kind of assay: FCM on NCI-H508 cells; grade = ng/ml to reach half MFI 175 (+++ 10<=x<100, ++ 100<=x<1000, + 1000<=x<10000).

In assay [2] the target is T1, A33 antigen (full-length human A33). Kind of assay: FCM on LS174T cells; grade = ng/ml to reach half MFI 100 (+++ 10<=x<100, ++ 100<=x<1000, + 1000<=x<10000).
The target is the same in assay [3]. Kind of assay: FCM competition on COLO205 cells as in Example 10; competitor mouse anti-A33 antibody. The method, then:
(§1) Whether or not each type of purified monoclonal antibody obtained in Example 8 recognizes an epitope similar to that of the mouse anti-A33 antibody was examined by a competition test using FCM. The COLO205 cell line was suspended at a concentration of 2×10⁶/ml in a PBS Staining Buffer (SB) containing 0.1% NaN₃ and 2% FCS. The cell suspension (50 μl/well) was dispensed in a 96-well round bottom plate (produced by Becton, Dickinson and Company). The purified mouse anti-A33 antibody prepared in Example 1 was not added or added at a concentration of 100 μg/ml to the wells containing each type of purified monoclonal antibody (1 μg/ml and 50 μl), followed by 30 minutes of incubation on ice. A mouse negative control (containing no purified anti-A33 antibody added thereto) was prepared as follows. A human IgG1 antibody (produced by Sigma) was adjusted at a concentration of 1 μg/ml with SB and then 50 μl of the solution was added, followed by 30 minutes of incubation on ice. The resultant was washed twice with SB and then 50 μl of FITC fluorescence-labeled goat anti-human IgG F(ab′)₂ antibody (produced by IBL) was added, followed by 30 minutes of incubation on ice. The resultant was washed once with SB and then the resultant was suspended in 300 μl of a FACS buffer. The mean fluorescence intensity of each cell line was measured by FACS (FACScan produced by Becton, Dickinson and Company). The inhibition (%) between each type of purified monoclonal antibody and the mouse A33 antibody was calculated by the following formula: […]

For assay [4] the target is unchanged. Kind of assay: FCM on COLO205 cells; grade = ng/ml to reach half MFI 45 (+++ 10<=x<100, ++ 100<=x<1000, + 1000<=x<10000).
Assay [5] has the same target. Kind of assay: FCM on COLO205 cells; grade = ng/ml to reach half MFI 90 (+++ 10<=x<100, ++ 100<=x<1000, + 1000<=x<10000). The source says:
(§2) The reactivity of each type of purified monoclonal antibody obtained in Example 8 to A33-antigen-expressing human colorectal cancer cell line COLO205 cells, LoVo cells (ATCC No. CCL-229), LS174T cells (ATCC No. CL-188), and NCI-H508 cells (ATCC No. CCL-253) was examined by FCM. Human colorectal cancer cell line HT-29 cells (ATCC No. HTB-38) expressing no A33 antigen were also examined as negative control cells. Each cell line was suspended at a concentration of 2×10⁶/ml in a PBS Staining Buffer (SB) containing 0.1% NaN₃ and 2% FCS. The cell suspension (50 μl/well) was dispensed in a 96-well round bottom plate (produced by Becton, Dickinson and Company). 50 μl of each type of purified monoclonal antibody (adjusted using SB at a concentration of 2000, 400, 80, or 16 ng/ml) was added, and then incubation was performed on ice for 30 minutes. A negative control was prepared depending on each subclass. Specifically, a human IgG1 antibody (produced by Sigma) was adjusted using SB at a concentration of 2000, 400, 80, or 16 ng/ml. 50 μl of the solution was added, followed by 30 minutes of incubation on ice. The resultant was washed twice with SB and then 50 μl of an FITC fluorescence-labeled goat anti-human IgG F(ab′)₂ antibody (produced by Southern Biotech), followed by 30 minutes of incubation on ice. The resultant was washed once with SB and then the resultant was suspended in 300 μl of a FACS buffer. The mean fluorescence intensity of each cell line was measured by FACS (FACScan produced by Becton, Dickinson and Company).
(§3) For COLO205 cells, the half value of the mean fluorescence intensity was determined to be 90. For LoVo cells, the half value of the mean fluorescence intensity was determined to be 25. […] When an antibody concentration required to reach such value was 10<=x<100 ng/ml, the reactivity was represented by +++, when the same was 100<=x<1000 ng/ml, the reactivity was represented by ++, and when the same was 1000<=x<10000 ng/ml, the reactivity was represented by +. When no binding was observed, the reactivity was represented by −.

Assay [6] has the same target. Kind of assay: FCM on NCI-H508 cells; grade = ng/ml to reach half MFI 125 (+++ 10<=x<100, ++ 100<=x<1000, + 1000<=x<10000).
Excerpt: as §2, §3

Assay [7] shares this target. Kind of assay: FCM competition on COLO205 cells; antibody 1 µg/ml, competitor mouse anti-A33 antibody 100 µg/ml. The method, then:
as §1

The target is the same in assay [8]. Kind of assay: FCM on LS174T cells; grade = ng/ml to reach half MFI 125 (+++ 10<=x<100, ++ 100<=x<1000, + 1000<=x<10000).
Excerpt: as §2, §3

The target is the same in assay [9]. Kind of assay: FCM on LoVo cells; grade = ng/ml to reach half MFI 25 (+++ 10<=x<100, ++ 100<=x<1000, + 1000<=x<10000).
Excerpt: as §2, §3

Numbering of substitutions follows the chain as printed.

B1: recN26 (antibody, V domains shown)
VH: QVQLVESGGGVVQPGRSLRLSCAASGFTFSHYGMHWVRQAPGKGLEWVALIWYDGSNKYYADSVKGRFTISRDNSKNTLYLQMNSLRAEDTAVYYCARDPLAAGTSYFDYWGQGTLVTVSS
VL: EIVLTQSPDFQSVTPKEKVTITCRASQSIGSSLHWYQQKPDQSPKLLIKYASQSFSGVPSRFSGSGSGTDFTLTINSLEAEDAAAYYCHQSSSLPFTFGPGTKVDIK
notes: also called recN26 antibody; N26 recombinant antibody
As for B1, the “antibody concentration required to reach half value of the mean fluorescence intensity” value in [1] was in the range of 10 to 100 ng/mL; in assay [2] it was 10 to 100 ng/mL; in assay [4], 100 to 1000 ng/mL. For the same molecule, in [3], the “Inhibition (%)” value is 95.3%.

B2: recQ54 (antibody, V domains shown)
VH: EVQLLESGGGLVQPGGSLRLSCAASGFTFSSYAMSWVRQAPGKGLEWVSDISGSGGYTYYADSVKGRFTISRDNSKNTLYLQMNSLRAEDTAVYYCAKTGDGSGSYSPDSWGQGTLVTVSS
VL: DIQMTQSPSSLSASVGDRVTITCRASQGISRWLAWYQQKPEKAPKSLIYAASSLQSGVPSRFSGSGSGTDFTLTISSLQPEDFATYYCQQYNSYPYTFGQGTKLEIK
notes: also called recQ54 antibody; Q54 recombinant antibody
For the molecule B2, the “antibody concentration required to reach half value of the mean fluorescence intensity” value in [1], in [2] and in [4] was 10 to 100 ng/mL throughout. Further, the “Inhibition (%)” value in [3] came out at 44.6%.

B3: chimeric anti-A33 antibody (antibody, V domains shown)
VH: EVKLVESGGGLVKPGGSLKLSCAASGFAFSTYDMSWVRQTPEKRLEWVATISSGGSYTYYLDSVKGRFTISRDSARNTLYLQMSSLRSEDTALYYCAPTTVVPFAYWGQGTLVTVSS
VL: DIVMTQSQKFMSTSVGDRVSITCKASQNVRTVVAWYQQKPGQSPKTLIYLASNRHTGVPDRFTGSGSGTDFTLTISNVQSEDLADYFCLQHWSYPLTFGSGTKLEVK
notes: Mouse variable regions with human IgG1 heavy chain and light chain constant regions (N5KG1-Val Lark vector); also called cA33; chimeric anti-A33 recombinant antibody
Consider B3, for which the “antibody concentration required to reach half value of the mean fluorescence intensity” value in [1], in assay [2] and in assay [4] was 10 to 100 ng/mL in each case. For the same molecule, the “antibody concentration required to reach half value of mean fluorescence intensity” value in [5] is 10 to 100 ng/mL; in [6] it was 100 to 1000 ng/mL; in assay [8], 100 to 1000 ng/mL; in assay [9], 10 to 100 ng/mL. Also, the “Inhibition (%)” value in [7] was determined as 94.2%; in [3], 94.6%.

B4: recM10 (antibody, V domains shown)
VH: QLQVQESGPGLVKPSETLSLICTVSGGSIRTSGYYWGWFRQPPGKGLEWIGTSHNSGSTYYNPSLKSRVTISVDTSKNQFSLKLNSVTAADTAVYYCARQGYDFKVNIDVWGQGTTVTVSS
VL: EIVLTQSPATLSLSPGERATLSCRASQSVSSYLAWYQQKPGQAPRLLIYDASNRATGIPARFSGSGSGTDFTLTISSLEPEDFAVYYCQQRSNWPLTFGGGTKVEIK
notes: also called recM10 antibody; M10 recombinant antibody
On to B4, for which the “antibody concentration required to reach half value of the mean fluorescence intensity” value in assay [1], in assay [2] and in assay [4] was 10 to 100 ng/mL each time. In assay [3], the “Inhibition (%)” value came out at 0.2%.

B5: recM165 (antibody, V domains shown)
VH: QVQLVESGGGVVQPGRSLRLSCAASGFTFSYYGMHWVRQAPGKGLEWVAVIWYDGSNKYYADSVKGRFTISRDNSKKTLYLQMNSLRAEDTAVYYCARDGHSSGWGDFQHWGQGTLVTVSS
VL: B4 VL with Y32S, V85I, L96P, G100Q
notes: also called recM165 antibody; M165 recombinant antibody
On to B5, for which the “antibody concentration required to reach half value of the mean fluorescence intensity” value in assay [1], in [2] and in assay [4] was 100 to 1000 ng/mL each time. Moreover, the “Inhibition (%)” value in assay [3] was 93.4%.

B6: rec263 (antibody, V domains shown)
VH: EVQLLESGGGLVQPGGSLRLSCAASGFTFSSYAMSWIRQAPGKGLEWVSAISASGGSTYYADSVKGRFTISRDNSKNTLYLQMNSLRAEDTAVYYCAKDRIVGATNYYYGMDVWGQGTTVTVSS
VL: DIQMTQSPPSVSASVGDRVTITCRASQGISSWLAWYQHKPGKAPKLLIYGASSLQSGVPSRFSGSGSGTDFTLTISSLQPEDFATYYCQQANSFPITFGQGTRLEIK
notes: also called rec263 antibody; rec263A1
Regarding B6, the “antibody concentration required to reach half value of the mean fluorescence intensity” value in assay [1], in assay [2] and in [4] was 100 to 1000 ng/mL each time. Besides, the “Inhibition (%)” value in assay [3] came out at 15.3%.
